The text below walks through data of patent US20070167369A1, “Novel use of isolated polypeptide comprising four FAS-1 domains, EM1 domain and RGD motif” (KYUNGPOOK NATIONAL UNIVERSITY INDUSTRY-ACADEMIC COOPERATION …, priority 2004, published 2007).

Experiment [1] deals with HUVECs. The experiment in a line: Apoptosis by annexin V staining/FACS, endothelial cells (Example 7-1). The format is cell-based, human. As to conditions: 48 hours. The procedure: Annexin V is a protein binding to calcium-dependent phospholipid, and known to have a strong affinity for phosphatidylserine such that apoptosis can be assayed. For this reason, the present inventors performed a test using an annexin V staining kit (Santa Cruz Biotechnology Inc.).
Each of human umbilical vein endothelial cells (HUVECs) and melanoma cells (B16F10) was suspended in medium at a density of 5×10^5 cells/ml, added to each well of […] and incubated at 37° C. overnight. On the next day, the cells were washed one time with PBS buffer, then added with serum-free medium and incubated at 37° C. for 24 hours. 0.2% FBS-containing fresh medium was treated with the fas-1 domain (βig-h3 D-IV) prepared in Example 1, at various concentrations, then added to each well of the plate and incubated at 37° C. for 48 hours. A negative control was added with PBS, a positive control was incubated with TNF-α or Vitamin C, which are known to induce the apoptosis of endothelial cells and melanoma cells. FITC (fluorescein isothiocyanate)-conjugated annexin V antibodies were added and allowed to react at 4° C. for one hour. After completion of the reaction, unbound annexin V antibodies were removed with PBS buffer, and the apoptosis of the cells was analyzed using FACS (BD Biosciences).

Experiment [2] relates to HUVECs. The experiment in a line: Migration of endothelial cells toward fibronectin, vitronectin or collagen (Example 5-2). The format is cell-based, human. The procedure:
The undersurface of a transwell plate was coated with each of fibronectin, vitronectin and collagen, and then, a test was performed in the same manner as in Example 4-2 above.

Experiment [3] deals with HUVECs. Briefly: Adhesion of endothelial cells to fibronectin, vitronectin or collagen (Example 5-1). The format is cell-based, human. The procedure: Flat-bottomed 96-well ELISA (enzyme-linked immunosorbent assay) plates (Costar, Corning Inc., NY) were incubated overnight at 4° C. with 10 μg/ml of fibronectin (Promega Inc., USA), vitronectin (Promega Inc., USA) and collagen, respectively, to coat the well surface. Then, a test was performed in the same manner as in Example 4-1 above.

The test system of experiment [4] is HUVECs. The experiment in a line: Transwell migration of endothelial cells toward βig-h3 (Example 4-2). The format is cell-based, human. The procedure:
The present inventors tested whether the fas-1 domain has the activity to inhibit the migration of endothelial cells (Nam, J. O. et al., J. Biol. Chem., 278:25902-25909, 2003). Cell migration assay was performed in a transwell plate (8 μm pore size, Costar, Cambridge, Mass.). The undersurface of the membrane was coated with the recombinant βig-h3 His-1-b (10 μg/ml) protein prepared in Example 1, at 4° C., and then, blocked for 1 hour at room temperature with PBS buffer containing 2% BSA. Meanwhile, HUVECs were added with the fas-1 domain (βig-h3 D-IV) prepared in Example 1, and preincubated at 37° C. for 30 minutes. A control was added with 2% BSA. Then, the HUVECs preincubated with the fas-1 domain were suspended in medium at a density of 3×10^5 cells/ml, and 0.1 ml of the cell suspension was added to the upper compartment of the filter. The cells were allowed to migrate at 37° C. for 6-8 hours.
Migration was terminated by removing the cells from the upper compartment of the filter with a cotton swab. The filters were fixed with 8% glutaraldehyde and stained with crystal violet. The extent of cell migration was determined by light microscope, and within each well, cell counting was done in nine randomly selected fields HPF (Microscopic high power fields, x200).

Experiment [5] relates to tumors derived from fas-1/B16F10 cells. Briefly: Growth of tumors derived from fas-1-overexpressing melanoma cells (Example 10-2). As to conditions: fas-1 domain overexpressed in the implanted B16F10 cells. The format is in vivo, mice. The procedure:
Each of the fas-1-overexpressing melanoma cells (fas-1/B16F10) and the control cells (pLNCX/B16F10) was suspended in medium at a density of 1×10^7 cells/ml. 0.1 ml of each of the cell suspensions was injected subcutaneously to 5-6 week old mice (Hyochang scientific company, Korea) to make a tumor model. Since the diameter of the tumor reached about 3 mm, the body weight and tumor size of the mice were checked at intervals of three days. The longest diameter and the shortest diameter of the tumor were measured with slide calipers, and the measured values were substituted in the following equation (1) to calculate the volume of the tumor. Volume of tumor=a×b^2/2 [Equation 1]
Wherein, ‘a’ is the shortest diameter of the tumor, and ‘b’ is the longest diameter of the tumor.

For experiment [6], the system named is HUVECs. The experiment in a line: Endothelial tube formation assay on Matrigel (Examples 9-1 and 11). The format is cell-based, human. The procedure:
First, 100 μl of Matrigel (Chemicon, International Inc, Temecula, Calif.) was added to each well of a 96-well plate and allowed to polymerize. HUVECs were suspended in medium at a density of 3×10^5 cells/ml, and 0.1 ml of the cell suspension was added to each well of the plate coated with Matrigel. At this time, 5 μM or 10 μM of the fas-1 domain (βig-h3 D-IV) prepared in Example 1 above was added together. A control was either treated with BSA or had no treatment. Thereafter, the cells were incubated at 37° C. for 16-18 hours. The cells were photographed, and endothelial tubes were counted and averaged.
For this purpose, the second fas-1 domain of βig-h3 (βig-h3 D-II) was prepared in the same manner as in Example 1-1 above. Since each domain of stabilin-II is insoluble, it was prepared in the form of soluble protein by cloning into the BamHI/XhoI sites of a Nus-conjugated pET43.1 vector (Novagen, USA). The prepared recombinant proteins were named “Nus-fas3” and “Nus-fas7”, respectively. A control to the second fas-1 domain of βig-h3 was treated with BSA, and a control to the fas-1 domain of stabilin-II was treated with a Nus protein. Thereafter, an endothelial tube formation assay was performed in the same manner as in Example 9-1.

Experiment [7] has as its system B16F10 tumor microvessels. The experiment in a line: Intratumoral microvessel density, CD31 immunostaining (Example 15-2). The experiment is classed as in vivo, BALB/c nude mice. Particulars: B16F10 tumors of treated mice. The procedure:
To determine whether the reduced size of the indicated protein-treated tumors coincides with reduced neovascularization, the present inventors used six representative tumors to quantify the density of microvessels after immunostaining with CD31 antibody.
Concretly, intratumoral microvessel density (MVD) was analyzed on paraffin sections of B16F10 tumor using a rat anti-mouse CD31 monoclonal antibody (PharMingen, San Diego, Calif.). Immunoperoxidase staining was done using the Vectastain avidin-biotin complex Elite reagent kit (Vector Laboratories, Burlingame, Calif.). Sections were counterstained with Hematoxyline. MVD was assessed initially by scanning the tumor at low power, followed by identification of four areas at the tumor periphery containing the maximum number of discrete microvessels, and counting individual microvessels at a high power field (x200). Each group consisted of six or eight tumor tissue.

B1: fas-1 domain: recombinant protein containing the fourth fas-1 domain of human βig-h3 (SEQ ID NO: 64) (protein, listed as Homo sapiens)
chain: MGTVMDVLKGDNRFSMLVAAIQSAGLTETLNREGVYTVFAPTNEAFRALPPRERSRLLGDAKELANILKYHIGDEILVSGGIGALVRLKSLQGDKLEVSLKNNVVSVNKEPVAEPDIMATNGVVHVITNVL
In the case of B1, the “induction of apoptosis of HUVECs” value in the experiment with HUVECs [1] was “induced the apoptosis of HUVECs in a dose-dependent manner”. The “inhibition of migration of HUVECs to collagen” value with HUVECs [2] (transwell coated with collagen) is “partially inhibited”. In addition, the “inhibition of migration of HUVECs toward fibronectin” value with HUVECs [2] (transwell coated with fibronectin) is “completely inhibited”. The “inhibition of migration of HUVECs toward vitronectin” value in the experiment with HUVECs [2] (transwell coated with vitronectin) is recorded as “completely inhibited”. Besides, the “inhibition of adhesion of HUVECs to collagen” value with HUVECs [3] (plate coated with 10 μg/ml collagen) is reported as “only partially inhibited”. Further, the “inhibition of adhesion of HUVECs to fibronectin” value with HUVECs [3] (plate coated with 10 μg/ml fibronectin) is given as “completely inhibited”. The “inhibition of adhesion of HUVECs to vitronectin” value in the experiment with HUVECs [3] (plate coated with 10 μg/ml vitronectin) is on record as “completely inhibited”. Moreover, the “inhibitory effect of endothelial cell migration compared with YH motif-containing peptide fragment of 18 amino acids” value with HUVECs [4] (20 μM fas-1 domain vs 1,000 μM YH peptide) was “higher”. The “inhibition of migration of endothelial cells promoted by βig-h3” value in the experiment with HUVECs [4] (transwell coated with βig-h3 His-1-b 10 μg/ml) is “inhibited by the fas-1 domain in a dose-dependent manner”. Besides, the “growth of tumors derived from melanoma cells” value in experiment [5] was “inhibits the in vivo growth of tumors derived from the melanoma cells”. Further, the “inhibition of endothelial tube formation” value in the experiment on HUVECs [6] (5 μM or 10 μM, 16-18 hours) is “inhibited the formation of endothelial tubes on Matrigel in a dose-dependent manner”. In addition, in the experiment on HUVECs [6] (10 μM fas-1 domain vs 1 mM YH peptide), the “in vitro angiogenesis inhibitory effect compared with YH motif-containing peptide fragment of 18 amino acids” value is “much higher”.

B2: truncated βig-h3: recombinant human βig-h3 with EMI domain, all four fas-1 domains and RGD motif; residues 68-653 of SEQ ID NO: 1 (SEQ ID NO: 66) (protein, listed as Homo sapiens)
chain: WYQRKICGKSTVISYECCPGYEKVPGEKGCPAALPLSNLYETLGVVGSTTTQLYTDRTEKLRPEMEGPGSFTIFAPSNEAWASLPAEVLDSLVSNVNIELLNALRYHMVGRRVLTDELKHGMTLTSMYQNSNIQIHHYPNGIVTVNCARLLKADHHATNGVVHLIDKVISTITNNIQQIIEIEDTFETLRAAVAASGLNTMLEGNGQYTLLAPTNEAFEKIPSETLNRILGDPEALRDLLNNHILKSAMCAEAIVAGLSVETLEGTTLEVGCSGDMLTINGKAIISNKDILATNGVIHYIDELLIPDSAKTLFELAAESDVSTAIDLFRQAGLGNHLSGSERLTLLAPLNSVFKDGTPPIDAHTRNLLRNHIIKDQLASKYLYHGQTLETLGGKKLRVFVYRNSLCIENSCIAAHDKRGRYGTLFTMDRVLTPPMGTVMDVLKGDNRFSMLVAAIQSAGLTETLNREGVYTVFAPTNEAFRALPPRERSRLLGDAKELANILKYHIGDEILVSGGIGALVRLKSLQGDKLEVSLKNNVVSVNKEPVAEPDIMATNGVVHVITNVLQPPANRPQERGDELADSALEI
For the molecule B2, in experiment [7], the “CD31-positive microvessels in tumor (intratumoral microvessel density)” value is given as “decrease in CD31-positive microvessels”.
